Results reported in publication PMC11642901 (bioRxiv, 2024).

Target: hMOG isoform 1 on live GL261 cells (human, UniProt Q16653)
Assay: flow cytometry on cells

Sequence of hMOG isoform 1 on live GL261 cells (Q16653 30-247): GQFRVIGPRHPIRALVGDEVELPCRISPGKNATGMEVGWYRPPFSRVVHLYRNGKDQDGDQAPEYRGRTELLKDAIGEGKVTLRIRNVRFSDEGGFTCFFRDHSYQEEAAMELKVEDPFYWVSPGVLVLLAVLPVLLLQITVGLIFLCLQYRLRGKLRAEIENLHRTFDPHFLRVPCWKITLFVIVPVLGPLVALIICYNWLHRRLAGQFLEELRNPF

binding result: binds
B1: anti-MOG IgG1 clone 8–18C5 (antibody, V domains shown)
VH: EVKLHESGAGLVKPGASVEISCKATGYTFSSFWIEWVKQRPGHGLEWIGEILPGRGRTNYNEKFKGKATFTAETSSNTAYMQLSSLTSEDSAVYYCATGNTMVNMPYWGQGTTVTVSS
VL: DIELTQSPSSLAVSAGEKVTMSCKSSQSLLNSGNQKNYLAWYQQKPGLPPKLLIYGASTRESGVPDRFTGSGSGTDFTLTISSVQAEDLAVYYCQNDHSYPLTFGAGTKLEIK
